Several values for one entry are separate records, joined by “and”; a condition that tells them apart may be missing. Identical values can stand only once.
Tests used:
[1] = target: Csx28 (Prevotella buccae Type VI-B2 CRISPR-Cas accessory protein), recombinant, DDM-solubilised (Prevotella buccae ATCC 33574); assay: cryo-EM structure
[2] = target: Csx28 (Prevotella buccae Type VI-B2 CRISPR-Cas accessory protein), recombinant, DDM-solubilised (Prevotella buccae ATCC 33574); assay: SEC-MALS

In the case of “Csx28 (Prevotella buccae Type VI-B2 CRISPR-Cas accessory protein), recombinant, DDM-solubilised (natural protein)”, the stoichiometry N [1] is reported as 8 and 16 and the stoichiometry N [2] is reported as 8 and 16.

Source: article doi:10.1101/2021.11.02.466367
